B1: AE11-7 (antibody, V domains shown)
VH: EVQLVQSGAEVKKPGASVKVSCKTSGYSLTQYPIHWVRQAPGQRPEWMGWISPGNGNTKLSPKFQGRVTLSRDASAGTVFMDLSGLTSDDTAVYFCTSVDLGDHWGQGTLVTVSS
VL: DIVMTQSPEFQSVTPKEKVTITCRASQSIGSSLHWYQQKPDQSPKLLINYASQSFSGVPSRFSGGGSGTDFTLTINSLEAEDAATYYCHQSSNLPITFGQGTRLEIK
notes: Fully human anti-TNF antibody isolated by in vitro display; also called AE11-7 VH; AE11-7 VL
B2: AE11-5 (antibody, V domains shown)
VH: EVQLVQSGAEVKKPGSSAKVSCKASGGTFSSYAISWVRQAPGQGLEWMGGIIPILGTANYAQKFLGRVTITADESTSTVYMELSSLRSEDTAVYYCARGLYYDPTRADYWGQGTLVTVSS
VL: DIVMTQSPDFHSVTPKEKVTITCRASQSIGSSLHWYQQKPDQSPKLLIRHASQSISGVPSRFSGSGSGTDFTLTIHSLEAEDAATYYCHQSSSSPPPTFGQGTQVEIK
notes: Fully human anti-TNF antibody isolated by in vitro display; also called AE11-5 VH; AE11-5 VL
B3: TNF-JK1 (antibody, V domains shown)
VH: EVQLVESGGGLVQPGGSLRLSCATSGFTFNNYWMSWVRQAPGKGLEWVANINHDESEKYYVDSAKGRFTISRDNAEKSLFLQMNSLRAEDTAVYYCARIIRGRVGFDYYNYAMDVWGQGTLVTVSS
VL: DIRLTQSPSPLSASVGDRVTITCRASQSIGNYLNWYQHKPGKAPKLLIYAASSLQSGVPSRFSGTGSGTDFTLTISSLQPEDFATYYCQESYSLIFAGGTKVEIK
notes: Fully human anti-TNF antibody isolated by in vitro display; also called TNF-JK1 VH; TNF-JK1 VL

Biological target: T1, Human TNF (human, UniProt P01375 77-233)
T1 construct: Biotinylated in the ELISA; purified recombinant protein in SPR; also called h TNF; huTNF
Experiment: in vitro display selection on recombinant human TNF

T1 sequence (P01375 77-233 limits assumed): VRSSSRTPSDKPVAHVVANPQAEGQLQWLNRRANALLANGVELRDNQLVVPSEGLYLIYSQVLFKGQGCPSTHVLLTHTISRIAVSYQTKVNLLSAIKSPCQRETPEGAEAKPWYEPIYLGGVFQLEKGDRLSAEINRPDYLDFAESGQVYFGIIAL

Does B1 bind?
Result: binds

Does B2 bind?
Result: binds

Does B3 bind?
Result: binds

From patent US20140161804A1 (AbbVie / Abbott, published 2014)
